In article PMC9972960:

Experiments:
[1] = biological target: purified vaccine protein with HA from influenza A/PR/8/1934 (H1N1), with the C-terminal foldon trimerization domain (influenza A/PR/8/1934 (H1N1) | T4 phage) (UniProt P03452); experiment: SEC
[2] = biological target: purified vaccine protein with HA from influenza A/PR/8/1934 (H1N1), with the C-terminal foldon trimerization domain (influenza A/PR/8/1934 (H1N1) | T4 phage) (UniProt P03452); experiment: native gel or EMSA

## purified vaccine protein with HA from influenza A/PR/8/1934 (H1N1), with the C-terminal foldon trimerization domain (from UniProt P03452)
[1]
  stoichiometry N: 3
[2]
  stoichiometry N: 3
